Source: patent US20120034160A1 (AbbVie / Abbott, published 2012)

T1: Recombinant Human IL-17 (human, UniProt Q16552 20-155, limits assumed)
T1 sequence (looked up): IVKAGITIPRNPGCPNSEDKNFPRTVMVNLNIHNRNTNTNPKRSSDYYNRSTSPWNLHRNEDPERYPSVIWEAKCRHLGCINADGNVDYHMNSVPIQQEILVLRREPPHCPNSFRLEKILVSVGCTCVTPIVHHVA


Legend:
Recombinant Human IL-1β = Recombinant Human IL-1β (human, UniProt P01584 117-269); experiment: cell-based or functional assay
Recombinant Human IL-17 = biological target: T1, Recombinant Human IL-17; experiment: cell-based or functional assay

Binder | C-Terminal VD IL-1β Neutralization Assay EC50 (Recombinant Human IL-1β) [nM] | N-terminal VD IL-17 Neutralization Assay EC50 (Recombinant Human IL-17) [nM] | N-Terminal VD IL-1β Neutralization Assay EC50 (Recombinant Human IL-1β) [nM] | C-terminal VD IL-17 Neutralization Assay EC50 (Recombinant Human IL-17) [nM]
DVD1269 (bispecific antibody, human IgG1, kappa) heavy: not shown light: DIQMTQSPSSLSASVGDRVTITCRASSGIISYIDWFQQKPGKAPKRLIYATFDLASGVPSRFSGSGSGTDYTLTISSLQPEDFATYYCRQVGSYPETFGQGTKLEIKRTVAAPDTVVTQSPAFLSVTPGEKVTITCITSTDIDVDMNWYQQKPDQPPKLLISQGNTLRPGVPSRFSSSGSGTDFTFTISSLEAEDAATYYCLQSDNLPLTFGQGTKLEIKRTVAAPSVFIFPPSDEQLKSGTASVVCLLNNFYPREAKVQWKVDNALQSGNSQESVTEQDSKDSTYSLSSTLTLSKADYEKHKVYACEVTHQGLSSPVTKSFNRGEC | > 45 | 0.0082 |  | 
DVD1273 (bispecific antibody, human IgG1, kappa) heavy: not shown light: EIVLTQSPDFQSVTPKEKVTITCRASQDIGSELHWYQQKPDQPPKLLIKYASHSTSGVPSRFSGSGSGTDFTLTINGLEAEDAGTYYCHQTDSLPYTFGPGTKVDIKRTVAAPDIQMTQSPSSLSASVGDRVTITCRASGNIHNYLTWYQQTPGKAPKLLIYNAKTLADGVPSRFSGSGSGTDYTFTISSLQPEDIATYYCQHFWSIPYTFGQGTKLQITRTVAAPSVFIFPPSDEQLKSGTASVVCLLNNFYPREAKVQWKVDNALQSGNSQESVTEQDSKDSTYSLSSTLTLSKADYEKHKVYACEVTHQGLSSPVTKSFNRGEC | 18.4 | 0.0013 |  | 
DVD1266 (bispecific antibody, human IgG1, kappa) heavy: not shown light: DTQVTQSPSSLSASVGDRVTITCITSTDIDVDMNWYQQKPGKPPKLLISQGNTLRPGVPSRFSSSGSGTDFTFTISSLQPEDFATYYCLQSDNLPLTFGQGTKLEIKRTVAAPDIQMTQSPSSLSASVGDRVTITCRASSGIISYIDWFQQKPGKAPKRLIYATFDLASGVPSRFSGSGSGTDYTLTISSLQPEDFATYYCRQVGSYPETFGQGTKLEIKRTVAAPSVFIFPPSDEQLKSGTASVVCLLNNFYPREAKVQWKVDNALQSGNSQESVTEQDSKDSTYSLSSTLTLSKADYEKHKVYACEVTHQGLSSPVTKSFNRGEC |  |  | 0.327 | 0.015
DVD1270 (bispecific antibody, human IgG1, kappa) heavy: not shown light: ETTVTQSPSSLSASVGDRVTITCITSTDIDVDMNWYQQKPGKPPKLLISQGNTLRPGVPSRFSSSGSGTDFTFTISSLQPEDFATYYCLQSDNLPLTFGQGTKLEIKRTVAAPDIQMTQSPSSLSASVGDRVTITCRASSGIISYIDWFQQKPGKAPKRLIYATFDLASGVPSRFSGSGSGTDYTLTISSLQPEDFATYYCRQVGSYPETFGQGTKLEIKRTVAAPSVFIFPPSDEQLKSGTASVVCLLNNFYPREAKVQWKVDNALQSGNSQESVTEQDSKDSTYSLSSTLTLSKADYEKHKVYACEVTHQGLSSPVTKSFNRGEC |  |  | 0.265 | 0.0407
DVD1268 (bispecific antibody, human IgG1, kappa) heavy: not shown light: DTVVTQSPAFLSVTPGEKVTITCITSTDIDVDMNWYQQKPDQPPKLLISQGNTLRPGVPSRFSSSGSGTDFTFTISSLEAEDAATYYCLQSDNLPLTFGQGTKLEIKRTVAAPDIQMTQSPSSLSASVGDRVTITCRASSGIISYIDWFQQKPGKAPKRLIYATFDLASGVPSRFSGSGSGTDYTLTISSLQPEDFATYYCRQVGSYPETFGQGTKLEIKRTVAAPSVFIFPPSDEQLKSGTASVVCLLNNFYPREAKVQWKVDNALQSGNSQESVTEQDSKDSTYSLSSTLTLSKADYEKHKVYACEVTHQGLSSPVTKSFNRGEC |  |  | 0.146 | 0.0034
DVD1272 (bispecific antibody, human IgG1, kappa) heavy: not shown light: DIQMTQSPSSLSASVGDRVTITCRASGNIHNYLTWYQQTPGKAPKLLIYNAKTLADGVPSRFSGSGSGTDYTFTISSLQPEDIATYYCQHFWSIPYTFGQGTKLQITRTVAAPEIVLTQSPDFQSVTPKEKVTITCRASQDIGSELHWYQQKPDQPPKLLIKYASHSTSGVPSRFSGSGSGTDFTLTINGLEAEDAGTYYCHQTDSLPYTFGPGTKVDIKRTVAAPSVFIFPPSDEQLKSGTASVVCLLNNFYPREAKVQWKVDNALQSGNSQESVTEQDSKDSTYSLSSTLTLSKADYEKHKVYACEVTHQGLSSPVTKSFNRGEC |  |  | 0.0139 | 0.346
DVD1267 (bispecific antibody, human IgG1, kappa) heavy: not shown light: DIQMTQSPSSLSASVGDRVTITCRASSGIISYIDWFQQKPGKAPKRLIYATFDLASGVPSRFSGSGSGTDYTLTISSLQPEDFATYYCRQVGSYPETFGQGTKLEIKRTVAAPDTQVTQSPSSLSASVGDRVTITCITSTDIDVDMNWYQQKPGKPPKLLISQGNTLRPGVPSRFSSSGSGTDFTFTISSLQPEDFATYYCLQSDNLPLTFGQGTKLEIKRTVAAPSVFIFPPSDEQLKSGTASVVCLLNNFYPREAKVQWKVDNALQSGNSQESVTEQDSKDSTYSLSSTLTLSKADYEKHKVYACEVTHQGLSSPVTKSFNRGEC | > 40 | 0.0109 |  | 
DVD1271 (bispecific antibody, human IgG1, kappa) heavy: not shown light: DIQMTQSPSSLSASVGDRVTITCRASSGIISYIDWFQQKPGKAPKRLIYATFDLASGVPSRFSGSGSGTDYTLTISSLQPEDFATYYCRQVGSYPETFGQGTKLEIKRTVAAPETTVTQSPSSLSASVGDRVTITCITSTDIDVDMNWYQQKPGKPPKLLISQGNTLRPGVPSRFSSSGSGTDFTFTISSLQPEDFATYYCLQSDNLPLTFGQGTKLEIKRTVAAPSVFIFPPSDEQLKSGTASVVCLLNNFYPREAKVQWKVDNALQSGNSQESVTEQDSKDSTYSLSSTLTLSKADYEKHKVYACEVTHQGLSSPVTKSFNRGEC | > 30 | 0.0109 |  | 

The remaining lines, values ahead:

C-Terminal VD IL-1β Neutralization Assay EC50 (Recombinant Human IL-1β) [nM] | N-terminal VD IL-17 Neutralization Assay EC50 (Recombinant Human IL-17) [nM] | N-Terminal VD IL-1β Neutralization Assay EC50 (Recombinant Human IL-1β) [nM] | C-terminal VD IL-17 Neutralization Assay EC50 (Recombinant Human IL-17) [nM] | Binder
1.92 | 0.0006 |  |  | DVD1275 (bispecific antibody, human IgG1, kappa) heavy: not shown light: EIVLTQSPDFQSVTPKEKVTITCRASQDIGSELHWYQQKPDQPPKLLIKYASHSTSGVPSRFSGSGSGTDFTLTINGLEAEDAGTYYCHQTDSLPYTFGPGTKVDIKRTVAAPDIQMTQSPSSLSASVGDRVTITCRASGNIHNYLTWYQQTPGKAPKLLIYNAKTLADGVPSRFSGSGSGTDYTFTISSLQPEDIATYYCQHFWSIPYTFGQGTKLQITRTVAAPSVFIFPPSDEQLKSGTASVVCLLNNFYPREAKVQWKVDNALQSGNSQESVTEQDSKDSTYSLSSTLTLSKADYEKHKVYACEVTHQGLSSPVTKSFNRGEC
> 20 | 0.0092 |  |  | DVD1277 (bispecific antibody, human IgG1, kappa) heavy: not shown light: EIVLTQSPDFQSVTPKEKVTITCRASQDIGSELHWYQQKPDQPPKLLIKYASHSTSGVPSRFSGSGSGTDFTLTINGLEAEDAGTYYCHQTDSLPYTFGPGTKVDIKRTVAAPDTQVTQSPSSLSASVGDRVTITCITSTDIDVDMNWYQQKPGKPPKLLISQGNTLRPGVPSRFSSSGSGTDFTFTISSLQPEDFATYYCLQSDNLPLTFGQGTKLEIKRTVAAPSVFIFPPSDEQLKSGTASVVCLLNNFYPREAKVQWKVDNALQSGNSQESVTEQDSKDSTYSLSSTLTLSKADYEKHKVYACEVTHQGLSSPVTKSFNRGEC
 |  | 0.145 | 0.346 | DVD1278 (bispecific antibody, human IgG1, kappa) heavy: not shown light: DTVVTQSPAFLSVTPGEKVTITCITSTDIDVDMNWYQQKPDQPPKLLISQGNTLRPGVPSRFSSSGSGTDFTFTISSLEAEDAATYYCLQSDNLPLTFGQGTKLEIKRTVAAPEIVLTQSPDFQSVTPKEKVTITCRASQDIGSELHWYQQKPDQPPKLLIKYASHSTSGVPSRFSGSGSGTDFTLTINGLEAEDAGTYYCHQTDSLPYTFGPGTKVDIKRTVAAPSVFIFPPSDEQLKSGTASVVCLLNNFYPREAKVQWKVDNALQSGNSQESVTEQDSKDSTYSLSSTLTLSKADYEKHKVYACEVTHQGLSSPVTKSFNRGEC
 |  | 0.168 | 1.21 | DVD1276 (bispecific antibody, human IgG1, kappa) heavy: not shown light: DTQVTQSPSSLSASVGDRVTITCITSTDIDVDMNWYQQKPGKPPKLLISQGNTLRPGVPSRFSSSGSGTDFTFTISSLQPEDFATYYCLQSDNLPLTFGQGTKLEIKRTVAAPEIVLTQSPDFQSVTPKEKVTITCRASQDIGSELHWYQQKPDQPPKLLIKYASHSTSGVPSRFSGSGSGTDFTLTINGLEAEDAGTYYCHQTDSLPYTFGPGTKVDIKRTVAAPSVFIFPPSDEQLKSGTASVVCLLNNFYPREAKVQWKVDNALQSGNSQESVTEQDSKDSTYSLSSTLTLSKADYEKHKVYACEVTHQGLSSPVTKSFNRGEC
 |  | 0.149 | 0.256 | DVD1280 (bispecific antibody, human IgG1, kappa) heavy: not shown light: ETTVTQSPSSLSASVGDRVTITCITSTDIDVDMNWYQQKPGKPPKLLISQGNTLRPGVPSRFSSSGSGTDFTFTISSLQPEDFATYYCLQSDNLPLTFGQGTKLEIKRTVAAPEIVLTQSPDFQSVTPKEKVTITCRASQDIGSELHWYQQKPDQPPKLLIKYASHSTSGVPSRFSGSGSGTDFTLTINGLEAEDAGTYYCHQTDSLPYTFGPGTKVDIKRTVAAPSVFIFPPSDEQLKSGTASVVCLLNNFYPREAKVQWKVDNALQSGNSQESVTEQDSKDSTYSLSSTLTLSKADYEKHKVYACEVTHQGLSSPVTKSFNRGEC
> 200 | 0.0052 |  |  | DVD1279 (bispecific antibody, human IgG1, kappa) heavy: not shown light: EIVLTQSPDFQSVTPKEKVTITCRASQDIGSELHWYQQKPDQPPKLLIKYASHSTSGVPSRFSGSGSGTDFTLTINGLEAEDAGTYYCHQTDSLPYTFGPGTKVDIKRTVAAPDTVVTQSPAFLSVTPGEKVTITCITSTDIDVDMNWYQQKPDQPPKLLISQGNTLRPGVPSRFSSSGSGTDFTFTISSLEAEDAATYYCLQSDNLPLTFGQGTKLEIKRTVAAPSVFIFPPSDEQLKSGTASVVCLLNNFYPREAKVQWKVDNALQSGNSQESVTEQDSKDSTYSLSSTLTLSKADYEKHKVYACEVTHQGLSSPVTKSFNRGEC
 |  | 0.0068 | 1.08 | DVD1274 (bispecific antibody, human IgG1, kappa) heavy: not shown light: DIQMTQSPSSLSASVGDRVTITCRASGNIHNYLTWYQQTPGKAPKLLIYNAKTLADGVPSRFSGSGSGTDYTFTISSLQPEDIATYYCQHFWSIPYTFGQGTKLQITRTVAAPEIVLTQSPDFQSVTPKEKVTITCRASQDIGSELHWYQQKPDQPPKLLIKYASHSTSGVPSRFSGSGSGTDFTLTINGLEAEDAGTYYCHQTDSLPYTFGPGTKVDIKRTVAAPSVFIFPPSDEQLKSGTASVVCLLNNFYPREAKVQWKVDNALQSGNSQESVTEQDSKDSTYSLSSTLTLSKADYEKHKVYACEVTHQGLSSPVTKSFNRGEC
